These results are taken from the RNAGym collection of RNA variant scans (doi:10.1073/pnas.2313332121).

First the molecules themselves.
B1: TPR 5TU (parent)
chain: GGAUCUUCUCGAUCUAACAAAAAAGACAAAUCUGCCACAAAGCUUGAGAGCAUCUUCGGAUGCAGAGGCGGCAGCCUUCGGUGGCGCGAUAGCGCCAACGUUCUCAACUAUGACACGCAAAACGCGUGCUCCGUUGAAUGGAGUUUAUCAUG

This sample holds only a part of the variants without activity. A value given as a limit tells only on which side of the number the result lay.

The variants in the data set derive from B1. Put plainly: polymerase ribozyme fitness, log enrichment relative to wild type (log ratio); higher = more active; in vitro selection for triplet polymerase activity. A digest of the protocol: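 The heterodimeric triplet polymerase ribozyme's subunits were each mutagenized into PCR-built libraries and transcribed. Every library was selected once, in triplicate, by annealing with a biotinylated primer, the partner subunit and triplets, incubating frozen at −7 °C, gel-excising extended constructs, capturing on streptavidin beads and running RT-PCR. Input and output libraries were Illumina-sequenced, with genotypes kept only at ≥10 input reads and ≥1 read per output. Fitness, from inverse-variance-weighted replicate averages, is the base-2 logarithm of genotype enrichment over wild-type enrichment.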
Take U55G C72U: the “polymerase ribozyme fitness (log ratio)” value was -0.349.

A60U G65C: the “polymerase ribozyme fitness (log ratio)” value is -3.98.

For A19U A40U C54A A60G C96U, the “polymerase ribozyme fitness (log ratio)” value is -2.61.

With A12U G81C G84A A115U, the “polymerase ribozyme fitness (log ratio)” value was ≤ -4.2.

For the variant U53G C95U, the “polymerase ribozyme fitness (log ratio)” value is -3.07.

Consider C93G A147U, for which the “polymerase ribozyme fitness (log ratio)” value is -1.74.

As for A39U A47G C95U A110G, the “polymerase ribozyme fitness (log ratio)” value is -3.7.

For the variant A17U A19C C38A G42C U56A U78G A113U C132G A142G U148A, the “polymerase ribozyme fitness (log ratio)” value was ≤ -4.2.

In the case of C95U A142C, the “polymerase ribozyme fitness (log ratio)” value was -1.54.

As for A19U A24U G46U A49C U82G C99A, the “polymerase ribozyme fitness (log ratio)” value was ≤ -4.2.

A73G C85A: the “polymerase ribozyme fitness (log ratio)” value is -1.22.

As to A39G G59A C116U U144C, the “polymerase ribozyme fitness (log ratio)” value was -4.19.

With U9G A20U G84A U102C A115G, the “polymerase ribozyme fitness (log ratio)” value is ≤ -4.2.

With G71C C76G A113U G124A, the “polymerase ribozyme fitness (log ratio)” value was ≤ -4.2.

For C57G G84U U109G G136U, the “polymerase ribozyme fitness (log ratio)” value was -3.84.

For A89U C95G A122G, the “polymerase ribozyme fitness (log ratio)” value is -1.39.

As for A91G A98U, the “polymerase ribozyme fitness (log ratio)” value is -3.95.

As to A26U G48C A49U A64C U90G A137G, the “polymerase ribozyme fitness (log ratio)” value was -4.11.

In the case of C14U G48A A64C U90C U102G C103G A115G A122G U127A A150C, the “polymerase ribozyme fitness (log ratio)” value was ≤ -4.2.

With A47U A52U C93A C125G U135C, the “polymerase ribozyme fitness (log ratio)” value is ≤ -4.2.

On to A23C C54U U55A G71A A122G, for which the “polymerase ribozyme fitness (log ratio)” value is ≤ -4.2.

Regarding A26U C93U A122U, the “polymerase ribozyme fitness (log ratio)” value was -2.76.

With G58U A137C, the “polymerase ribozyme fitness (log ratio)” value is -3.03.

For A3C A16U C93G C118U U130G, the “polymerase ribozyme fitness (log ratio)” value was ≤ -4.2.

C85A U148C: the “polymerase ribozyme fitness (log ratio)” value is -2.22.

Take G71U A89U U135A: the “polymerase ribozyme fitness (log ratio)” value is ≤ -4.2.

For A30G C54U C76G A91C, the “polymerase ribozyme fitness (log ratio)” value was ≤ -4.2.

Regarding C93U C125A, the “polymerase ribozyme fitness (log ratio)” value is -2.69.

As for A23U U31C C87G U104G, the “polymerase ribozyme fitness (log ratio)” value is ≤ -4.2.

For the variant C99A C118G A119C, the “polymerase ribozyme fitness (log ratio)” value is -0.582.

In the case of C14G C18G U82G G84C, the “polymerase ribozyme fitness (log ratio)” value is ≤ -4.2.

In the case of C87U C103G, the “polymerase ribozyme fitness (log ratio)” value is -2.13.

Consider A17C A26C C87U, for which the “polymerase ribozyme fitness (log ratio)” value was -1.83.

Turning to G50A U145C, the “polymerase ribozyme fitness (log ratio)” value was -0.761.

For the variant A60U A150C, the “polymerase ribozyme fitness (log ratio)” value was -3.39.

With A49G C75U C96G, the “polymerase ribozyme fitness (log ratio)” value was -2.68.

For A41C U61A G143C, the “polymerase ribozyme fitness (log ratio)” value was -3.94.

Turning to A22C A23G C54U, the “polymerase ribozyme fitness (log ratio)” value was ≤ -4.2.

With U53G C118U, the “polymerase ribozyme fitness (log ratio)” value was -1.68.

As for C18G U146C, the “polymerase ribozyme fitness (log ratio)” value was -0.0606.

In the case of G83A C87A, the “polymerase ribozyme fitness (log ratio)” value is ≤ -4.2.

For the variant C10A G92A, the “polymerase ribozyme fitness (log ratio)” value is -4.08.

As to G80C G94A, the “polymerase ribozyme fitness (log ratio)” value is ≤ -4.2.

With A28U U53G A66G C69A C79G G94C C108G C129U A137U, the “polymerase ribozyme fitness (log ratio)” value is ≤ -4.2.

With G46A U55A G58C G84C, the “polymerase ribozyme fitness (log ratio)” value was -2.84.

Regarding A16G A49U C63U C72U G88C G141C, the “polymerase ribozyme fitness (log ratio)” value is ≤ -4.2.

For the variant A28G U56A, the “polymerase ribozyme fitness (log ratio)” value was -3.7.

With U6C C14U U44A G68U G92U A98G C99G, the “polymerase ribozyme fitness (log ratio)” value is ≤ -4.2.

Regarding A40C A41C G59A G70U G84A C85A C105G G141C G143U, the “polymerase ribozyme fitness (log ratio)” value is ≤ -4.2.

In the case of G34C U78C A91G U146A, the “polymerase ribozyme fitness (log ratio)” value is ≤ -4.2.

Turning to U6A C57G C105U, the “polymerase ribozyme fitness (log ratio)” value came out at 0.464.

As to C5A A41C C54U C85A C103A G117A G133C A137U, the “polymerase ribozyme fitness (log ratio)” value was ≤ -4.2.

In the case of U77A, the “polymerase ribozyme fitness (log ratio)” value is ≤ -4.2.

For A91G C131A A137C G143C, the “polymerase ribozyme fitness (log ratio)” value was ≤ -4.2.

Consider U45G A91C U101G A147C, for which the “polymerase ribozyme fitness (log ratio)” value is ≤ -4.2.

As to C18G G34U C57U C96U A147U, the “polymerase ribozyme fitness (log ratio)” value is -2.53.

Turning to U6G C10G A21G G71A C76U C85A, the “polymerase ribozyme fitness (log ratio)” value was ≤ -4.2.

Consider A3C C35U C75A C129G, for which the “polymerase ribozyme fitness (log ratio)” value was ≤ -4.2.

Take C54G: the “polymerase ribozyme fitness (log ratio)” value is -1.45.

In the case of A19C C57U G94U, the “polymerase ribozyme fitness (log ratio)” value was -0.554.

In the case of C5G C69G C93U, the “polymerase ribozyme fitness (log ratio)” value was -4.12.

In the case of C54U G80A, the “polymerase ribozyme fitness (log ratio)” value is -0.56.

With C18G C76G C85A U145A, the “polymerase ribozyme fitness (log ratio)” value is ≤ -4.2.

As for A3U U4A C5U C14G A16U A30C G83U G100A, the “polymerase ribozyme fitness (log ratio)” value is ≤ -4.2.

With C54A U104A C131U, the “polymerase ribozyme fitness (log ratio)” value is -2.14.

In the case of G81U G94C U144A, the “polymerase ribozyme fitness (log ratio)” value was -0.944.

For C51U A52G C87U A137C, the “polymerase ribozyme fitness (log ratio)” value is ≤ -4.2.

As for G71A C96A, the “polymerase ribozyme fitness (log ratio)” value was -3.18.

Consider U9A A26G A66C A122U A137U G143C U145A, for which the “polymerase ribozyme fitness (log ratio)” value is ≤ -4.2.

G68C U104G C105G C118U G133C: the “polymerase ribozyme fitness (log ratio)” value is ≤ -4.2.

Turning to C8U C96G, the “polymerase ribozyme fitness (log ratio)” value is -2.63.

Take A29U U61A A91C C96A G128C: the “polymerase ribozyme fitness (log ratio)” value was ≤ -4.2.

Turning to C5G A29U A64U G86U A150G, the “polymerase ribozyme fitness (log ratio)” value is ≤ -4.2.

On to A47G C87U, for which the “polymerase ribozyme fitness (log ratio)” value was 0.257.

As to U31C C69U G86U C96U, the “polymerase ribozyme fitness (log ratio)” value is -3.55.

On to U4G A97U, for which the “polymerase ribozyme fitness (log ratio)” value amounted to 0.0622.

For the variant G50C A52C U55A G86A, the “polymerase ribozyme fitness (log ratio)” value was -3.95.

With C10G U53A G83U A91U A97G C103A, the “polymerase ribozyme fitness (log ratio)” value was ≤ -4.2.

On to A41C A47U G59U U61A G70C G84U C125A, for which the “polymerase ribozyme fitness (log ratio)” value was ≤ -4.2.

Take C5G A28C A73G: the “polymerase ribozyme fitness (log ratio)” value was ≤ -4.2.

For U33G C85G G117C, the “polymerase ribozyme fitness (log ratio)” value was ≤ -4.2.

For A23U U55A G88A C114A G136C, the “polymerase ribozyme fitness (log ratio)” value was ≤ -4.2.

Take A20G A22U C93G: the “polymerase ribozyme fitness (log ratio)” value is -4.09.

In the case of C51G G80U G94U, the “polymerase ribozyme fitness (log ratio)” value was ≤ -4.2.
